From patent US20240400720A1 (NOVIMMUNE S A, published 2024)
Changes are numbered by the printed parent chain.

T1: human CD19 (human, UniProt P15391 20-291, limits assumed)
T1 construct: also called hCD19
T1 sequence (looked up): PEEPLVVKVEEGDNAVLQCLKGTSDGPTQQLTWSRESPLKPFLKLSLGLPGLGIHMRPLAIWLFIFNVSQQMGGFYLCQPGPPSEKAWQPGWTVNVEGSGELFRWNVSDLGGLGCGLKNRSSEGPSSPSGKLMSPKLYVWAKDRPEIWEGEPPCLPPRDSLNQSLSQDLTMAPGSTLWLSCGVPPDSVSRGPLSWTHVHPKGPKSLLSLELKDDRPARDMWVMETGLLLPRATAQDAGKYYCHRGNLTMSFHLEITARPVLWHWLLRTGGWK

B1: Ka3D3 antibody (antibody, human IgG1, kappa, V domains shown)
VH: not shown
VL: DIQMTQSPSSLSASVGDRVTITCRASQSIGKYLNWYQQKPGKAPKLLIYAASRLQSGVPSRFSGSGSGTDFTLTISSLQPEDFATYYCQQMHPRAPKTFGQGTKVEIKR
notes: IgG
B2: 5A3M4 (antibody, human IgG1, kappa, V domains shown)
VH: not shown
VL: DIQMTQSPSSLSASVGDRVTITCQASQDINKYLNWYQQKPGKAPKLLIYGASRLETGVPSRFSGSGSGTDFTFTISSLQPEDIATYYCQQKHPRNPRTFGQGTKVEIKR
notes: the list MOLECULES holds only the monovalent form; also called 5A3-M4 antibody
B3: Ka3A2 antibody (antibody, human IgG1, kappa, V domains shown)
VH: not shown
VL: B1 VL with G30S, A95S
notes: IgG
B4: Ka3A3 antibody (antibody, human IgG1, kappa, V domains shown)
VH: not shown
VL: B1 VL with G30A, K31S
notes: IgG; also called KA3-P1A3
B5: Ka3B2 antibody (antibody, human IgG1, kappa, V domains shown)
VH: not shown
VL: B1 VL with S28N, A50S
notes: IgG
B6: Ka3C5 antibody (antibody, human IgG1, kappa, V domains shown)
VH: not shown
VL: B1 VL with G30S, K31R, A50S, R53S
notes: IgG; also called KA3-P5C5
B7: Ka3G2 antibody (antibody, human IgG1, kappa, V domains shown)
VH: not shown
VL: B1 VL with G30D, A95G
notes: IgG; also called KA3-P5G2
B8: Ka3H3 antibody (antibody, human IgG1, kappa, V domains shown)
VH: not shown
VL: B1 VL with R24Q, S28D, G30A, R53A, A95S
notes: IgG
B9: Ka3H8 antibody (antibody, human IgG1, kappa, V domains shown)
VH: not shown
VL: B1 VL with G30A, K31S, A95S
notes: IgG
B10: Ke8A4 antibody (antibody, human IgG1, kappa, V domains shown)
VH: not shown
VL: B1 VL with G30A, R53S, M91F, P93K, A95S, K97Q
notes: IgG
B11: Ke8A8 antibody (antibody, human IgG1, kappa, V domains shown)
VH: not shown
VL: B1 VL with G30S, R53T
notes: IgG
B12: Ke8B2 antibody (antibody, human IgG1, kappa, V domains shown)
VH: not shown
VL: B1 VL with M91K, K97R
notes: IgG; also called KE8-P3B2
B13: Ke8B7 antibody (antibody, human IgG1, kappa, V domains shown)
VH: not shown
VL: B1 VL with R53S, A95S
notes: IgG
B14: Ke8C4 antibody (antibody, human IgG1, kappa, V domains shown)
VH: not shown
VL: B1 VL with G30S, K31R, R53N, A95G
notes: IgG
B15: Ke8C7 antibody (antibody, human IgG1, kappa, V domains shown)
VH: not shown
VL: B1 VL with R24Q, S28D, G30N, K31R, R53S, M91R, A95G, K97R
notes: IgG
B16: Ke8E8 antibody (antibody, human IgG1, kappa, V domains shown)
VH: not shown
VL: B2 VL with G50A, R53S, E55Q, T56S, F73L, I83F, N95G
notes: IgG
B17: Ke8F1 antibody (antibody, human IgG1, kappa, V domains shown)
VH: not shown
VL: B1 VL with G30A, K31S, L33V, R53G, M91F, P93K, A95R, K97Q
notes: IgG
B18: Ke8G2 antibody (antibody, human IgG1, kappa, V domains shown)
VH: not shown
VL: B1 VL with K31R, S76N, M91K, K97R
notes: IgG
B19: Ke8G6 antibody (antibody, human IgG1, kappa, V domains shown)
VH: not shown
VL: B1 VL with K31R, R53S
notes: IgG
B20: Ke8G11 antibody (antibody, human IgG1, kappa, V domains shown)
VH: not shown
VL: B1 VL with K31R, R53S, A95G
notes: IgG
B21: Ke8H3 antibody (antibody, human IgG1, kappa, V domains shown)
VH: not shown
VL: B1 VL with G30N, K31R, M91K, A95G, K97R
notes: IgG
B22: Ke8H5 antibody (antibody, human IgG1, kappa, V domains shown)
VH: not shown
VL: B1 VL with G30A, K31R, R53S, M91F, P93K, K97Q
notes: IgG; also called KE8-P6H5
B23: Ke8H6 antibody (antibody, human IgG1, kappa, V domains shown)
VH: not shown
VL: B1 VL with G30S, A50N, R53T, M91R, A95G, K97R
notes: IgG
B24: Ke81A3 antibody (antibody, human IgG1, kappa, V domains shown)
VH: not shown
VL: B1 VL with R24Q, S28D, G30N, K31R, R53S, M91R, K97R
notes: IgG
B25: Ke81G9 antibody (antibody, human IgG1, kappa, V domains shown)
VH: not shown
VL: B1 VL with G30D, M91R, P93K, A95S, K97Q
notes: IgG
B26: Ke84G9 antibody (antibody, human IgG1, kappa, V domains shown)
VH: not shown
VL: B1 VL with G30S, R53S, M91K, A95S, K97R
notes: IgG
B27: Ke86G9 antibody (antibody, human IgG1, kappa, V domains shown)
VH: not shown
VL: B1 VL with G30S, A50N, R53N, M91R, A95G, K97T
notes: IgG
B28: Kc4C3 antibody (antibody, human IgG1, lambda, V domains shown)
VH: not shown
VL: QSALTQPASVSGSPGQSITISCTGTSSDVRAANYVSWYQQHPGKAPKLMIYKNSTRPSGVSNRFSGSKSGNTASLTISGLQAEDEADYYCSSYDWWFRPKVFGGGTKLTVLG
notes: IgG, lambda
B29: Kc4A1 antibody (antibody, human IgG1, lambda, V domains shown)
VH: not shown
VL: B28 VL with R30S, A32R, K52E, N53S, T55K
notes: IgG, lambda
B30: Kc4A4 antibody (antibody, human IgG1, lambda, V domains shown)
VH: not shown
VL: B28 VL with G24R, R30N, A31N, A32T, N53T, T55G
notes: IgG, lambda
B31: Kc4C11 antibody (antibody, human IgG1, lambda, V domains shown)
VH: not shown
VL: B28 VL with A31G, A32N, K52E, T55K
notes: IgG, lambda
B32: Kc4E2 antibody (antibody, human IgG1, lambda, V domains shown)
VH: not shown
VL: B28 VL with R30Y, A31Y, A32N, N33K, K52E, N53S, T55K
notes: IgG, lambda; also called KC4-P2E2
B33: Kc4E10 antibody (antibody, human IgG1, lambda, V domains shown)
VH: not shown
VL: B28 VL with R30N, A31S, N53S, T55S
notes: IgG, lambda
B34: Kc4F4 antibody (antibody, human IgG1, lambda, V domains shown)
VH: not shown
VL: B28 VL with A31R, K52Q, N53D, T55S
notes: IgG, lambda
B35: Kc4G9 antibody (antibody, human IgG1, lambda, V domains shown)
VH: not shown
VL: B28 VL with R30E, A31R, A32K
notes: IgG, lambda
B36: Kc4G11 antibody (antibody, human IgG1, lambda, V domains shown)
VH: not shown
VL: B28 VL with R30G, A31K, N53D, T55D
notes: IgG, lambda
B37: Kc4B1 antibody (antibody, human IgG1, lambda, V domains shown)
VH: not shown
VL: B28 VL with A32N, K52E, N53S, T55A
notes: IgG, lambda
B38: Ke8F2 antibody (antibody, human IgG1, kappa, V domains shown)
VH: not shown
VL: B1 VL with G30D, R53S, M91K, K97R
notes: IgG
B39: C9 antibody (antibody, human IgG1, lambda, V domains shown)
VH: not shown
VL: NFMLTQPHSVSESPGKTVTISCTRSSGSIADKYVQWYQQRPGSSPTIVIYYDNERPSGVPDRFSGSIDSSSNSASLTISGLKTEDEADYYCQTYDESLYGWVFGGGTKLTVLG
notes: anti-CD19, IgG, lambda; also called L7B7_C9
B40: A6 antibody (antibody, human IgG1, lambda, V domains shown)
VH: not shown
VL: B39 VL with A30G
notes: anti-CD19, IgG, lambda; also called L7B7_A6
B41: B11 antibody (antibody, human IgG1, lambda, V domains shown)
VH: not shown
VL: B39 VL with A30E, E96N
notes: anti-CD19, IgG, lambda; also called L7B7_B11
B42: C6 antibody (antibody, human IgG1, lambda, V domains shown)
VH: not shown
VL: B39 VL with A30N, Y51F, E96T
notes: anti-CD19, IgG, lambda; also called L7B7 C6

biological target: T2, human CD47 on the cell surface (human, UniProt Q08722 19-323); assay: CD47-SIRPα competitive binding assay: His-tagged soluble human SIRPα (200 ng/ml) on hCD47-transfected CHO cells, antibody 3.3 pM-330 nM; blocked ligand SIRPα
T2 construct: whole, on cells; also called huCD47; native CD47

Binding result, binds:
B1
B2
B3
B4
B5
B6
B7
B8
B9
B10
B11
B12
B13
B14
B15
B16
B17
B18
B19
B20
B21
B22
B23
B24
B25
B26
B27
B28
B29
B30
B31
B32
B33
B34
B35
B36
B37

biological target: T3, human CD47 (human, UniProt Q08722 19-141, limits assumed); assay: affinity maturation by phage display on hCD47; positive in hCD47-SIRPα inhibition screen, reformatted as IgG
T3 construct: also called hCD47

Binding result, binds:
B1
B3
B4
B5
B6
B7
B8
B9
B10
B11
B12
B13
B14
B15
B16
B17
B38
B18
B19
B20
B21
B22
B23
B24
B25
B26
B27
B28
B29
B30
B31
B32
B33
B34
B35
B36
B37

biological target: T1, human CD19; assay: second round of affinity maturation (from D11)

Binding result, binds:
B39
B40
B41
B42
